In US20210017289A1 (AbbVie / Abbott, published 2021) one finds EC50, Kd and koff data, which are given here for one molecule.

For test [1], the target named is T1, human OX40 expressed on cells (human, UniProt P43489 29-277).
T1 construct: also called cell-surface human OX40; Jurkat-NF-κB-huOX40
T1 sequence: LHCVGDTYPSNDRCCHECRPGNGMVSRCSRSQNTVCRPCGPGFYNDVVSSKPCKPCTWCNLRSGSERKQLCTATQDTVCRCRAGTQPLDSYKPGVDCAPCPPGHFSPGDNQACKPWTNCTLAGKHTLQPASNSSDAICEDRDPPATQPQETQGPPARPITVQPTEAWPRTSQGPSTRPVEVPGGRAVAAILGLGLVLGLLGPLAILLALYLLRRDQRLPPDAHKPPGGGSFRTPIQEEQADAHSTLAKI
Put plainly: flow cytometry on Jurkat NF-κB reporter cells expressing human OX40. The protocol: A Jurkat NF-κB reporter cell line expressing human OX40 protein was cultured in DMEM containing 10% FBS and penicillin/streptomycin (pen/strep). For the binding assay, each cell line was resuspended at 5 million cells per mL. 50 μL (250,000 cells)/well were transferred to each well of a 500 μL polypropylene 96-well plate (Nunc). A 2× stock of test anti-OX40 antibody or isotype control mAb was prepared in a separate dilution plate at 666, 333, 111, 37.03, 12.34, 4.11, 0.457, 0.152, 0.0508, 0.0169, 0.00564 nM in culture media. Each antibody (50 μL/well) was transferred into respective wells of the assay plate. Cells were incubated with the test anti-OX40 antibody or isotype control antibodies for 30 minutes at 4° C. and washed twice with 250 μL/well of PBS by centrifuging at 800 rpm for 3 minutes. Bound antibody was detected with Cy5-Donkey anti-human IgG (H+L) (Jackson ImmunoResearch) diluted to 2 μg/mL (50 μL/well) in PBS for 30 minutes at 4° C. Cells were washed once with 250 μL/well of PBS, resuspended in PBS containing 1% Formaldehyde and analyzed on a dual laser FACSCalibur (Becton Dickinson).
In general terms: In flow cytometry, cells or beads pass a laser one at a time.

In test [2] the target is T2, recombinant soluble human OX40 ECD (residues 1-216) (human, UniProt P43489 29-216).
T2 construct: Purchased from Creative Biomart and further purified by gel filtration; also called recombinant extracellular domain of human OX40
T2 sequence: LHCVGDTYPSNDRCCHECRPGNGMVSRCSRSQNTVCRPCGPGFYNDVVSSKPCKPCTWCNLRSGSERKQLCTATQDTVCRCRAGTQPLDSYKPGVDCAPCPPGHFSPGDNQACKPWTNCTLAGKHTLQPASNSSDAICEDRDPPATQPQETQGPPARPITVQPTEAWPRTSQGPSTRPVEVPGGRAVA
The test is described as follows: SPR (Biacore T200, 25 °C), antibody captured by anti-Fc, OX40 ECD as analyte. The protocol:
The binding kinetics of an anti-OX40 antibody to recombinant soluble OX40 ECD (extracellular domain) were determined by surface plasmon resonance-based measurements made on a Biacore T200 instrument (GE Healthcare) at 25° C. using an anti-Fc capture assay approach. Recombinant extracellular domains (ECDs) of human OX40 (residues 1-216) and rhesus macaque OX40 (residues 28-214) were purchased (Creative Biomart) and further purified by gel filtration using Superdex200 (GE Healthcare) in 10 mM 4-(2-hydroxyethyl)-1-piperazineethanesulfonic acid (HEPES), pH 7.4, 150 mM NaCl, 3 mM ethylenediaminetetraacetic acid (EDTA). Rhesus macaque (Macaca mulatta) OX40 is identical to cynomolgus monkey (Macaca fascicularis) OX40 (SEQ ID NO:2) at the amino acid level. Chip preparation and binding kinetic measurements were made in the assay buffer HBS-EP+(10 mM HEPES, pH 7.4, 150 mM NaCl, 3 mM EDTA, 0.05% Tween 20). For anti-Fc capture chip preparation, approximately 2000 Resonance Units (RU) of goat anti-human IgG Fc polyclonal antibody (Thermo Fisher Scientific Inc.), diluted to 25 μg/mL in 10 mM sodium acetate (pH 4.5), was directly immobilized across a CMS biosensor chip using a standard amine coupling kit according to manufacturer's instructions and procedures. Unreacted moieties on the biosensor surface were blocked with ethanolamine. For binding kinetics measurements each assay cycle consisted of the following steps: 1) capture of test anti-OX40 antibody on test surface only; 2) analyte injection (OX40 ECD or buffer only) over both reference and test surface, 240 μL at 80 μL/min, after which the dissociation was monitored for 900 seconds at 80 μL/min; 3) regeneration of capture surface by 10 mM Glycine-HCl, pH 1.5 injections over both reference and test surface. During the assay, all measurements were referenced against the capture surface alone (i.e., with no captured test antibody) and buffer-only injections were used for double referencing. OX40 injections ranged in concentration from 900 nM or 300 nM to 11.11 nM in a randomized 9- or 3-fold dilution series, respectively. Data were processed and fitted globally to a 1:1 binding model using Biacore T200 Evaluation software to determine the binding kinetic rate constants, kₐ (M⁻¹s⁻¹) and kd (s¹), and the equilibrium dissociation constant KD (M).
On the technique in general: SPR reads the build-up and loss of mass on a sensor chip optically.

The EC50 is the midpoint of the concentration-response curve. A high value points to weaker potency. Broadly, the Kd is the constant that tells how readily two partners part at equilibrium. What is called koff is the rate constant with which the complex falls apart.

B1: Hu3738 (antibody, V domains shown)
VH: EVQLVESGGGLVQPGGSLRLSCAASGFTFSRYGMSWVRQAPGKGLELVATINSNGGRTYYPDSVKGRFTISRDNAKNSLYLQMNSLRAEDTAVYYCAREGITTAYAMDYWGQGTTVTVSS
VL: DIVMTQSPDSLAVSLGERATINCKASQSVDYDGDSYMHWYQQKPGQPPKLLIYAASILESGVPDRFSGSGSGTDFTLTISSLQAEDVAVYYCQQSNEDPRTFGGGTKVEIKR
notes: Humanized antibody; also called exemplary anti-OX40 antibody Hu3738; Hu3738 VH.1b / Hu3738 VL.1
B1: a half-maximal effect in test [1] (EC50) was put at 0.5 nM. In addition, in test [2], the Kd amounted to 42 nM and the dissociation rate constant (koff) is 0.042 s⁻¹.
